Experiments:
Pseudomonas aeruginosa = test: Impairment of lipase secretion and growth on minimal media-olive oil plates; type: cell-based; conditions: for growth on minimal media-olive oil agar plates: 10 ug protein, with or without 5% DMSO, olive oil as only carbon source
Excerpt: Experiments were thus conducted to assess the ability of At1g74130 proteins or variants to impair the protein secretion process of Pseudomonas aeruginosa, a gram-negative bacterium known to be pathogenic and producers of biofilms. Any impact on the protein secretion mechanism may alter pathogenicity, growth, survival, biofilm production, and sensitivity to antimicrobial drugs. The design of the Pseudomonas assays was similar to that used for bacteria in the above examples, results, and figures. Treated Pseudomonas cells were plated onto minimal media supplemented with olive oil as the only external carbon source. The minimal media-olive oil plates consisted of the following: 50 mM MOPS, pH 7.5; 40 mM K2HPO4; 25 mM NaH2PO4; 7.5 mM (NH4)2SO4; 0.4 mM MgSO4; 0.5% (v/v) olive oil; 40 ug/ml neutral red; 20 ul trace elements (Mn, Co, Zn, Cu, and Mo); and 1.5% agar. Pseudomonas cells need to express and secrete lipases in order to break down the olive oil and allow the acquisition of carbon from the media. Cells that are impaired with respect to protein secretion will not be able to break down the olive oil for acquisition and permit subsequent growth.
Control assays were conducted on cells without added At1g74130 or variants (sensitizer variants) to determine the delivery system to use. Control assays were also conducted to determine if the 5% (v/v) DMSO delivery system used for E. coli exerted any effect. Pseudomonas cells were mock treated with Luria Broth (LB) media or 5% (v/v) DMSO for 45-90 minutes prior to plating on minimal media supplemented with olive oil as the sole external carbon source. Total volumes of 200 μl were used in these assays. The plates were allowed to grow overnight to assess the level of growth or colony formation.
In the experimental assays, the utility of At1g74130 or variants in the Pseudomonas was tested by adding 10 ug protein (At1g74130 or variants) to cells (600-800 cells) incubated for 45 minutes at 37° C., shaken, and followed by another 45 minute period at 37° C. […]

yeast = test: Sensitization of yeast to fungicidal agents AmB and Nys; type: cell-based, Saccharomyces cerevisiae; conditions: for yeast cell survival, variant added alone: 10 ug protein alone in elution buffer, no fungicide; for yeast survival, fungicidal agents together with variant protein: 10 ug protein with sub-lethal AmB and/or Nys
Method: Experiments were conducted to assess the ability of the Arabidopsis At1g74130 proteins or variants to sensitize yeast to the antifungal agents Amphotericin B (AmB) and Nystatin (Nys). Overall, these assays were conducted in a manner similar to that designed for bacteria (Example 9). In addition to the components mixed with the added proteins or variants, the antifungal AmB was also utilized as part of the delivery system. The AmB drug contains small quantities of the detergent deoxycholate, which may also assist in the delivery of proteins into the cell, as well as function as a pore forming agent itself. […] The effective co-delivery sub-lethal concentrations of the two antifungal agents or protein had little or no effect when provided individually. FIGS. 17 and 18 show results of the yeast sensitivity assays for AmB and Nys. […] In FIG. 17, the “Yeast Control” bars represent yeast cells given mock treatments with culture media (YPD) alone, YPD plus 1% AmB, YPD plus 0.5% Nys, and YPD plus 1% AmB and 0.5% Nys, respectively. The “BSA Control” bars represent another set of mock treatments with yeast cells. This set utilized the same set-up as the Yeast Control set but with added control bovine serum albumin proteins (BSA) (dissolved in the elution buffer, the same buffer used for the purification of the recombinant At1g74130 rhomboid proteins or variants). These assays represent another variation of negative controls for rhomboid protein. The “Elution Control” bars represent yeast cells mock treated using the same set-up as in the Yeast Control set but with added elution buffer alone. This variation of control assays was designed to assess for potential toxic impacts when combining elution buffer and the listed drugs, as well any effects originating from components of the elution buffer itself. The composition of the elution buffer is provided above in Example 5. With the exception of Nys, these treatments represent the first step and occur for 45 minutes before the second step when exposure to fungicides takes place. Within each set of bars, where applicable, the second 15-minute step treatment occurred with a sub-lethal dose of Nys. After a total of one hour, the treated yeast cells were plated on non-selective YPD agar plates. Plates were grown 2-3 days at 27-30° C. and assessed for surviving cell numbers (measuring cell death). Images were also taken to document cell and colony growth characteristics.
In the experimental assays, the sensitizing properties of At1g74130 or variants (sensitizing variants) were tested by adding 10 ug protein (At1g74130 or variants in elution buffer) to yeast cells (300-500 cells). To reiterate in all cases, the components were added to cultures and mixed for one hour, where Nys was added and incubated for the last 15 minutes of the treatment. Pre-treatment was designed to permit AmB and At1g74130 proteins to establish and work prior to adding Nys. After the one hour incubation, 500 cells were plated on non-selective YPD agar media and grown for 48 hours at 30′C.
The sub-lethal levels of fungicides to use in these assays were determined using dosage experiments. These assays were conducted on yeast cells without added rhomboid proteins or variants. The dosages of AmB tested ranged from 0 to 5% (v/v). […] Likewise, the Nys level was determined using a range of 0.5 to 2.5%. Yeast cells were treated for one hour with fungicides in a total volume of 400 μl YPD media before plating.
Since both the AmB buffer contained small quantities of detergent (deoxycholate being the main one), an experiment was done in which different amounts (1% and 10%) of deoxycholate were added to yeast cells to ascertain any effects. Adding deoxycholate had little effect on yeast.
This set of yeast assays was conducted in the same manner described above (Example 13) and employed the same controls and combinations. […]

bacteria = test: Sensitization of bacteria to tetracycline by exogenous rhomboid protein; type: cell-based, Escherichia coli; conditions: tetracycline 15 ug/ml
Method: Experiments were conducted to assess the ability and the utility of At1g74130 protein variants to sensitize bacteria to another antibiotic, tetracycline. In bacteria, tolerance or resistance to tetracycline is facilitated by a mechanism different from the ampicillin resistance assayed in Example 9. Unlike the breakdown of ampicillin outside the bacterial cells by secreted ampicilliase, tetracycline resistance in bacteria is based largely on the continual and effective pumping of tetracycline out of the cell by proteinaceous membrane pumps. To assess the utility of the At1g74130 for sensitizing bacteria to tetracycline, these bacterial assays were conducted in the same manner described in Example 9. The same controls and combinations were used. The final treatment level of tetracycline used in place of the ampicillin treatment was 15 ug/ml.
Experiments were conducted to assess the ability and the utility of a human rhomboid type or variant to sensitize bacteria to tetracycline. These bacterial assays were conducted in the same manner described above for the other rhomboid variants and in Example 9. The same controls and combinations were used. The At1g74130 L was the control for UBAC2 in this set of assays. The previously observed behaviours and responses were not observed for UBAC2 in this setting with the antibiotic tetracycline (FIG. 16).

B1: At1g74130 M: 7/8 M-form splice variant of Arabidopsis At1g74130 rhomboid protein (protein, listed as Arabidopsis thaliana)
chain: MHAIFCRRVAVGCSSPQLTKLVTKQASQSRHSLSHLLPFDLSSRFVPPYVVSRSARVHGFFAGKLGNTNLKLKFGNVMESRAGFFSSELPSHGFESGGFTGFQKRGWKSWINGANGVVFGLVIANAAVFTMWRVLGKDNMWMVKNFMLSRYSFMTGRIHTLITSGFSHVGATHIILNMMGLCYFGARIARSFGPRYLLKLYFAGALGGSVFFLSSHALSVISLKGQRVVPKDQLKVPIGKLGANGPVYAITLLDMLLYPKVTTYFGLMLRVPVFAGIYSLGLNIIKMLEVCMMGKTTIP
Q: With B1 as the molecule, how does the “growth on minimal media-olive oil agar plates” value (Pseudomonas aeruginosa) read?
A: Its value is “reduced”.

Q: And the lipase secretion (Pseudomonas aeruginosa; assay with elution buffer and variant)?
A: The lipase secretion was “moderate impairment of lipase secretion”.

Q: And the “yeast cell survival, variant added alone” value (yeast)?
A: Its value is “no effect”.

Q: And the “yeast survival, fungicidal agents together with variant protein” value (yeast)?
A: The value was “dramatically reduced yeast survival”.

Q: And the “sensitization of bacteria to tetracycline” value (bacteria)?
A: The value was “increased the sensitivity”.

B2: At1g74130 S: 6/7 S-form splice variant of Arabidopsis At1g74130 rhomboid protein (protein, listed as Arabidopsis thaliana)
chain: MHAIFCRRVAVGCSSPQLTKLVTKQASQSRHSLSHLLPFDLSSRFVPPYVVSRSARVHGFFAGKLGNTNLKLKFGNVMESRAGFFSSELPSHGFESGGFTGFQKRGWKSWINGANGVVFGLVIANAAVFTMWRVLGKDNMWMVKNFMLSRYSFMTGRIHTLITSGFSHVGATHIILNMMGLCYFGARIARSFGPRYLLKLYFAGALGGSVFFLSSHALSVISLKGQRVVPKDQLKVPIGKLGANGPVYAITLLDMLLYPKVTTYFGLMLRVPVFAVRESIA
Q: What does the source list for B2?
A: growth on minimal media-olive oil agar plates (Pseudomonas aeruginosa): most potent impact; yeast cell survival, variant added alone (yeast): no effect; yeast survival, fungicidal agents together with variant protein (yeast): dramatically reduced yeast survival; sensitization of bacteria to tetracycline (bacteria): no activity
